Data on 18 sequences can be found in a protein production outcome set (Wang et al. 2014).

This data set can be described thus: label from the status in PepcDB records.
On to “MDDSYMMVPMRRKRSQCDLAQMVQAIEEYDGSTQCEIDIDECASHPCKNGATCIDQPGNYFCQCVPPFKVFNFDGISSTSVQEFYHCEFGPCKASDSCENGAVRGEKMDLEMFPLEFRCQCASFSGPRCEINVNECSSSPCLHGYCYDMVDGFSCLCNPGYVGIRCEQDIDDCILNACEHNSTCKDLHLSYQCVCLSDWEGNFCEQESNECKMNPCKNNSTCTDLYKSYRCECTSGWTGQNCSEEINECDSDPCMNGGLCHESTIPGQFVCLCPPLYTGQFCHQRYNLCDLLHNPCRNNSTCLALVDANQHCICREEFEGKNCEIDVKDCLFLSCQDYGDCEDMVNNFRPGFSGSLCEIEINECSSEPCKNNGTCVDLTNRFFCNCEPEYHGPFCELDVNKCKISPCLDEENCVYRTDGYNCLCAPGYTGINCEINLDECLSEPCLHDGVCIDGINHYTCDCKSGFFGTHCETNANDCLSNPCLHGRCTELINEYPCSCDADGTSTQCKIKINDCTSIPCMNEGFCQKSAHGFTCICPRGYTGAYCEKSIDNCAEPELNSVICLNGGICVDGPGHTFDCRKACLYNCDNAKTRQESKELNKQQD”, for which the protein production entry was “failed”.
The result for “MDEAYKMRCDWYHHGELVSGGESESKFSQLNDEVVELYQAAEYLDEEFAGMVHLGEIVERDDKKEDEFLAKLADAETPLYPSCFNHSKLSAIMSLFTLKTKNGWSDKSHNDLLETLPEMLLEDNVLHSSLYEVKKFLKSFDMG” reads “failed”; that for “MDEGCVIAFLVWVDNGECILERQSAPDELNLFDIILVAKEQWRLLLAVPLLLAVLAAGISLAMPDQYTAKALVNIPAPVGAAGGVNIVQSTSLLEQAVEKFQLQRYYAVEDNRSALLALSNVVKTTAGKDGLLEISATDRNAEQAARLGNYLADLTRQHILDGNLTEQSKRYFVLQKRLDVESEQVSQLSRKVAQLVPDQEAALGGEGMQLISGFATLEAQLAFQNVQAAGNSGAVSNLQSSVMQLRASLELANPKVRQMSNEQLAGLRDLYFHRALAAELQRQVSLAKSLADQDVQIVLKASAPLEKSGPKRTLIVLLAGLVGLMLAIALIVCKRQWRELSNRFAKNTAA”, “failed”; that for “MDEGRRINIPKIGAVKCKFHRLLEGTPKTLQIVLDVNEWYAVYTCEVPVQPLPETGSTVGVDVGTRYFAITSDGEFVHNPRHLGSALKKLRVQQRTVSRRKKGGNRRRKAVGQVAKTHRKIRRSRQDFHHKVAVKLVRENDLIAHEDLRVSNVVKSNLARSISDVGWSAFFDILRGKAESAGRVVVRVPPQYTSQRCHACGHTCRENRNNEVFKCVSCGHEDHADWNAAKNILGRAVPSGVNGSGVSHAVA”, “failed”.
To “MDEILTNTATPEVGGVAQLSPSAARTKARIALAVMLVPLFGTLEAIRLWFTGQVHALDFILFAVFYAVQMFGVSMGYHRYLAHRAFKTSRLMSSLMLIAGCMAAQGPILFWVTTHRRHHTYSDQHGDPHSPNLMGQSRWQRAKGLWHAHMPWMLAPDMSSWNFFAPDILRDRRLFFYNQTYLFWVALGVILPGVIGGLVSQSWSGAWSGLIFGGLARIFVANQAAWCVGSICHRYGARPFVTHDQSTNNWIVAFLTFGEGLQNNHHAFPAWYRHGVHWWEPDLSGWTLALMGKLRLVSDLRSPSQAMIDKVRKRQASS” belongs “failed”; to “MDEKEKNLNENSENESTPKREVEDTLHTPESAQPVQETPIVEGVTPEGEKFAGATEDAAEASSTNAFFEEASNKESEPARPAPGPRRAGTTGGGAVPPNRVNNGGSGNGNGEPPKRGKHFIGYFLTALIGVIIGGLIIFFVAWDNGDNADTTSNSNNKATKVEKVSVDTTSDVTKAVDKVQDAVVSVLNYQSSSSLDGTTTSEQEASSGSGVIYKKANGKAYIVTNNHVVADANKLEVTFTNGKKSEAKLLGTDEWNDLAVLEIDDKNVTTVAAFGDSDSLKLGEPAIAIGSPLGTEFSGSVTQGIISGLNRAVPVDTNGDGTEDWEADVIQTDAAINPGNSGGALINIEGQVIGINSMKISMENVEGISFAIPSNTVEPIIEQLETKGEVERPSLGVSLRDVDTIPETQQKNILKLPDSVDYGAMVQQVVSGSAADKAGLKQYDVIVELNGQKVTNSMTLRKILYGNDVKIGDKVKVKYYRDGKEKSTDIKLEAAKTTT”, “failed”; to “MDELELRIRKAEKLVQDAKKEFEMGLYERCCSTAYYAMFHAAKAMLLGYGRDSKTHRGTIYLIWECREELGLSDDDCSKLSRAFDLREESDYGIYKEVSKDLAIKILKDAEIFVQKAKNAVNKNR”, “not failed”.
Turning to “MDELKLYTYIAVFSTFALYFAIAWWARAGSTSDFYVAGGGITPMQNGMAIGADWMSAASFISMAGLIAFLGYGGSVFLMGWTGGYVLLAMLLAPYMRKHGKFTVPEFIFDRYYSKTARIVAVACLIIASLTYIIGQMKGVGVAFSRFLEVDYGLGLGIGMFVVWVYAVLGGMKGITYTQIAQYVVMIFAYTIPAIFISLQLTGNPIPQLGLGSTLADGSGVYLLDKLDMVVTDLGFKEYTTSNLGGTLNMFAYTISLMIGTAGLPHVIMRFFTVPSVQAARQSAGYALVFIGLLYTVAPAVGAMARLNLMNTIEPTAGQNLVYDERPQWFKDWEKTGLLKFEDKNGDGKIQYTSNATDQTVTKINTMTGKEIVVVPNEMVKVDRDIMVLANPAIANLPNWVIALVAAGGLAAALSTAAGLLLAISSSISHDLMKGVLTPDLSEKNELLAGRVVMTIAILVSGYLGLHPPGFAAGTVALAFGLAASSIFPALMMGIFSKKMSGTAAISGMVAGIGVTMMYVFQHKGIMFIPGTSFLGDMGKDWFFGISPNAFGAVGAIVNFGVAFIVLQFTGPCPANIVAMVENMRAPGDCAAAHDH”, the protein production entry is given as “failed”.
The result for “MDELRQKLQYSSFELEAVKAKANEETKLHQEEVKNLLHLLKLARQERDEAKDQLQKLLTIKTNSSITESNSHGSSPVDSFFEPVSSSEFSNFNMVPEPINQVKFKNRQQLVNRNLKKIDPVDALMDEIIKGKALPEKGKLLQTVMESGPLLQTLLVAGPLPRWRNPPPLQQSFRVPPISNSYGCLPATTTTSMLNFRGCSVPRIATGIEVATKRQRFH” reads “failed”; that for “MDEMRPPPRSRTIYLLPNLFTTAGLFSGFYAIIAAANGQFVQAAMAVFVAAVMDGLDGRVARLTNTSSEFGVQYDSLADLVSFGMAPALVMYHWSLSALKYDSSVMGRVGWSAAFLYAACAALRLARFNTQVGVVDKRWFIGLASPAAAGLMMSFVWAFADDSLGFDGEQLRYVALAVTVVSALLMVSRIRFWSFKGGARGPRADRVPFLALAIATVVIALLVIDLARSLLVIGVLYALSGPLMWLWRRWRRVPELP”, “failed”.
As to “MDEQAVSTSMKTVYIRIYTSVLYTSYTKPGNWSAVDRSAWSVSCSNVYADDDAKYGAHLAIDGEINTTWFTWGVANAGECWWNTVLDRPVTLTGFSVTKQSAYGSGYNLRSAEIKVRKEGETEWVTYPRVLTFRNFKGADPQYAAIEPPIPNVKEFRINCLTPDNYTGFAEINLYVKQLEHHHHHH”, the protein production entry is on record as “not failed”.
As for “MDESKKISLGQFFTPTHIVKYMIGLMTKNKNASILEPSSGNGVFLDSLIQLGYTNLTSYEIDGDIISHPFVINSSFITSYDKPQYDSIIGNPPYVRWKNLSELQKKELKDNSIWKMYCNSLCDYFYIFIIKSILQLKVGGELIFICPDYFFSTKNAEGLRKFLINNGSFEKIILFNESKVFHGVSSSVVIFKYIKGKNIDNINIINIDSKSPIKSEDIE”, the protein production entry was “failed”.
As to “MDEVLLVKKLVEDAIVPTRGSKCAAGIDLYSNTNFIIQPHERFLVSTGVSVQIPHQCYGRIAPRSSLALKYGIDVGAGVIDEDYRGEIKVILFNHSNEIFNGRKGDRIAQLIIERISYCRISEVKELNTTDRGTNGFGSTGK”, the protein production entry is “not failed”.
With “MDEYEDSQSPAPSYQYPKETLRKRQNSVQNSGGSVSSRFSRKSFKLDYRLEEDVTKSKKGKDGRFVNPWPTWKNISIPNVLRWLIMEKNHSGVPGSKEELDKELPVLKPYFVSDPEDAGVREAGLRVTWLGHATLMVEMDELIFLTDPMFSSRASPSQYMGPKRFRRPPCTISELPTIDAVLISHNHYDHLDYGSVLALNERFGSELRWFVPLGLLDWMQKCGCENVIELDWWEENCVPGHDKVTFVFTPSQHWCKRTLLDDNKVLWGSWSVLGPWSRFFFAGDTGYCPAFEEIGKRFGPFDLAAIPIGAYEPRWFMKYQHADPEDAVRIHIDLQTKRSVAIHWGTFALANEHYLEPPVKLNEALERYGLSCEDFFILKHGESRYLNTDDRAFEET”, the protein production result is given as “failed”.
Regarding “MDFFAIDPIGLPHTSLIFYLSSLLIALLLVFLTFQAYRLKSHRYFFLFLQLSQVIGLYTWYVLRGFPLDEALPLYHCRIAMLAIFFLPDRNKFKQLFMVLGIGGTFLALLSPDLYPFRLWHVANVSFYFGHYALLVNGLIYLLRFYDASQLRLLSVVRYLATVNFLLLLVSLATKGNYGFVMDIPVIHTRHLLLNFVIVTSGLTFMVKITEYFYLKFGEAQQLALAFSKEK”, the protein production entry is recorded as “failed”.
The result for “MDFFHHQDTARQRTGLLVMLFTLAVLAITGLVSVISIGIYFYFTGEPFTTQSIISYCLLSFVGVLLVVSISSFIRLSELNANGGRGVAESIGGKLISTDTSNAKHRQLLNVVEEMSIASGIPVPPVYVMAEEHGINAFAAGMSIDDAVIGVTQGALDAFSRDELQGVIAHEFSHILNGDMRLNTRLIGALFGITCIAHFGHLILDNSNSTRHVSRSSSDSNKGFAVIILIAIVCLVLGWLGTLFGNMIKAAISRQREFLADASAVQFTRNDQGIAGALKKIGSNVQGSTLNTKASDEMSHMMFGQSKLSGFSGLFATHPPLDERIRRIEPNWDGSYAQHSHAQNTAFDNEQVSGFAVGGGSPASQSASPSEQLSETGQQLISQLPPELVDIAREPYSARFIAFALIFDGSDIQREMIKSYVPLASQSTLLPWLDYDLPLHLRFPLLELALPALKSLSEAQKISLCKVLRELSETDNQYSLAEWCVINLLEKQLLASFGFIKQHKSLKQLEESVFWLLRELAWVSHSQADKAQRAYHCALAHLGFPEVKLEPANSNWHLSRAALELLLQLKPNDRRMFVKACRLAIESDGEITVAEGEIYRVIACFLEVPEPPLTISG” reads “failed”.
As to “MDFKIEKYLLKKAEELAFITIKHGGEFKLKSYEVPKGGLDVPIKNEVLVKGIKEKTAQDKLNSMSIADAMIYIIGIDSKFKNNAEYEKFLNALSKDIDLDLKSYMGYMSRKYFEIGEHTDSLIYIKAFITMYPDDLDAMYNYAIVCQEIAKQYQKDMDDKAMNAFLLEAMAKLEKVIDVDENFALGYYHLGYHYYNQGQYLKTKLTWEEALRLGLDADLVAEVQENLGKMDFKVQYEEGYTLVFQGKFKEGLEKLLPLEEEHMDWWNLLFMIALGYKGMGEIEQAKMYLEKILIIKPNQVDTIVELGLCEAYKNNLDKAIEYFEQAAKIKEDPEILCNLGMAYLNNGDIDDATYYIERAYELNPQDEITIVCLRELGINK”, the protein production result is listed as “failed”.
The result for “MDFLLRTITMNERRALGFGVAAVLLWSTVATAFKITLEHFTPTQMLTIASAVSILALAGVAAYQKTLSQLIDTFLANPLYYILLGAINPLAYYLVLFKSYDLLPASQAQPLNYSWAITLTLMAAVFLGQKIRKQDWIACVLGYLGVIVIATKGDVLALEFDSPLGVGLALFSTLLWAGYWILNTKNKADPILGLLLGFLVALPVAIGLSIYEGAPWAQIPMSGWAAVSYVGLFEMGVTFVLWLSALRLTQNTARISNLIFASPFISLLLLANIIGEEIHPSTLIGLIMIVCGLLIQQFFGKKEELQTEQ” reads “failed”.
